From US11932673B2, “Sodium channel inhibitors” (priority 2017, dated 2024)

What was measured:
huASIC1a = target: T1, huASIC1a (Homo sapiens, UniProt P78348); experiment: QPatch automated whole-cell patch-clamp on HEK293 cells stably expressing huASIC1a; assay type: cell-based; conditions: pH 6.0 activation after 15-20 min pre-incubation; concentration μM: KB_A07_PcTx1 6.6, KB_A12_PcTx1 5, KB_A12_Mba-1 3, KB_A12_Mba-2 2.3, KB_A07 6, KB_A12 3.3
T1 sequence (P78348 whole entry, looked up): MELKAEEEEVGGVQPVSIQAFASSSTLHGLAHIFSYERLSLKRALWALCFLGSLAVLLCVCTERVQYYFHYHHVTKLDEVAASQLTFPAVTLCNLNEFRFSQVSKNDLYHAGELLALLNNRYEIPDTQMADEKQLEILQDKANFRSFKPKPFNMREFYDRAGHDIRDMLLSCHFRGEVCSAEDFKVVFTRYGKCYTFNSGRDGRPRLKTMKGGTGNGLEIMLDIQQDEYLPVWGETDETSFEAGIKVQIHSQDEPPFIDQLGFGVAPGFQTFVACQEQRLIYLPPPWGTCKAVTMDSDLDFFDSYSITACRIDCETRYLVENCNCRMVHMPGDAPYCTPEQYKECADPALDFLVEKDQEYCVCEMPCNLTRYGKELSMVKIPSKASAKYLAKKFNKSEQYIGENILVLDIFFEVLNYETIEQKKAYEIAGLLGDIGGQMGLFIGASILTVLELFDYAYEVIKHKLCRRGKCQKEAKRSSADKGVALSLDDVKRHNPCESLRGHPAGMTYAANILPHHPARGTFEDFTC
Protocol: Knottin Kv 1.3 and ASIC1a blockers expressed in the KnotBody format (see examples 6 and 7) were tested for their ability to inhibit the function of the ion channel targets. The effect of these KnotBodies on cells expressing the human Kv 1.3 (huKv1.3) or human ASIC1a channels was assessed using QPatch automated whole-cell patch-clamp electrophysiology (Sophion).
To functionally assess the ASIC1a KnotBodies, HEK293 cells stably expressing huASIC1a (Sophion) were analysed using a QPatch electrophysiology assay in the presence or absence of the KnotBody fusions (using KB_A12 as a recipient and replacing the original EETI-II donor as shown in Table 8). The “parental” KB_A12 with the EETI-II donor was used as a negative control. Internal and external physiological solutions were freshly prepared prior to the assay. […]
At the end of each KnotBody incubation and subsequent ASIC1a current activation, a full blocking concentration (300 nM) of the ASIC1a knottin inhibitor PcTx1 (positive control) was perfused onto the cell recording and a final activating pH 6.0 external solution was applied. The percentage remaining signal between activating pH 6.0 baseline (i.e. pre-KnotBody) and post-KnotBody incubation was determined.

trypsin [1] = experiment: Phage TRF binding assay of KnotBody phage on immobilised biotinylated trypsin
Protocol: Phage display technology facilitates isolation of binders to any given target from large combinatorial repertoires based on proteins and peptides that can be presented on the surface of filamentous phage^105. In order to isolate functional knottin-antibody fusions from the KnotBody libraries multiple rounds of phage display selections on trypsin (cognate antigen for the EETI-II donor) were carried out. Phage particles were prepared by rescuing KnotBody libraries using trypsin cleavable helper phage^102,106 Two rounds of phage display selections were performed on 10 μg/ml biotinylated trypsin immobilised on Streptavidin (for Round-1) or Neutravidin (for round-2) coated Maxisorp™ immunotubes (Thermo Scientific, Cat No. 444202). In both rounds of selection, phage libraries were pre-incubated with streptavidin coated paramagnetic beads (Thermo Fisher Scientific, Cat. No. 11205D). These beads were removed prior to the addition the phage to the antigen tubes to limit the streptavidin binders entering the selection. Polyclonal phage preparations from round-2 selection outputs were analysed for trypsin binding using a time resolved fluorescence (TRF) binding assay. In this assay, polyclonal phage binding to biotinylated trypsin immobilised on neutravidin (Thermo Fisher Scientific, Cat. No 31000) coated Maxisorp™ plates (Thermo Scientific, Cat. No. 437111) was detected using a mouse anti-M13 antibody (GE Healthcare, Cat. No. 27-9420-01) followed by europium conjugated anti-mouse antibody (Perkin Elmer, Cat. No. AD0124).
In order to identify monoclonal KnotBodies with desired binding characteristics, 94 individual clones derived from 2 rounds of selection using EETI-II CDR1 or CDR2 libraries were picked into 96 well culture plates and phage were prepared from each clone. Methods for screening by monoclonal phage ELISA are known in the art^107. […] Clones with >3× binding signal above background were picked as positive clones and sequenced to identify unique clones. 14 and 42 unique binders were identified from EETI-II CDR1 and EETI-II CDR2 libraries respectively (Table 1). 18 binders from the EETI-II CDR2 library and 3 binders from the EETI-II-CDR1 library were chosen for further characterisation based on their VL and linker sequence diversity. These binders were assigned new clone identification numbers (Table 2). […] In order to confirm that the loss of trypsin binding was not due to reduced expression or display of pIII fusion phage was prepared from 11 (randomly chosen) KnotBodies and their GlyAla variants were analysed on a western blot using an antibody which recognises the product of gene 3 (pIII) using an anti-pIII antibody (MoBiTec GmbH) (FIG. 6).

LOX-1 = LOX-1 (Homo sapiens, UniProt P78380); experiment: Phage TRF binding assay of adhiron-antibody fusions on LOX-1; conditions: monoclonal phage; LOX-1 directly immobilised; non-specific binding checked on cMET-FC, GAS6-CD4, FGFR4-CD4, UPA, B-gal
Protocol: In order to test the functionality of these adhiron-antibody fusions, monoclonal phage prepared from each clone was assessed for binding to LOX-1 in a TRF binding assay. In this assay, LOX-1 (immobilised directly on Maxisorp™ plates) binding of phage displaying adhiron-antibody fusion was detected using a mouse anti-M13 antibody (GE Healthcare) followed by europium conjugated anti-mouse antibody (Perkin Elmer). Parent KnotBodies KB_A07 and KB_A12 (EETI-II fusions) were included as controls. Proteins cMET-FC, GAS6-CD4, FGFR4-CD4, UPA and B-gal were used to examine non-specific binding.

trypsin [2] = experiment: TRF binding assay of purified KnotBody Fabs on biotinylated trypsin
human Nav1.7 = human Nav1.7 (Homo sapiens, UniProt Q15858); experiment: QPatch patch-clamp on CHO cells stably expressing human Nav1.7, single application (Example 19); assay type: cell-based
Sequence of human Nav1.7 (Q15858 other isoform, or with tags, fused parts or gaps): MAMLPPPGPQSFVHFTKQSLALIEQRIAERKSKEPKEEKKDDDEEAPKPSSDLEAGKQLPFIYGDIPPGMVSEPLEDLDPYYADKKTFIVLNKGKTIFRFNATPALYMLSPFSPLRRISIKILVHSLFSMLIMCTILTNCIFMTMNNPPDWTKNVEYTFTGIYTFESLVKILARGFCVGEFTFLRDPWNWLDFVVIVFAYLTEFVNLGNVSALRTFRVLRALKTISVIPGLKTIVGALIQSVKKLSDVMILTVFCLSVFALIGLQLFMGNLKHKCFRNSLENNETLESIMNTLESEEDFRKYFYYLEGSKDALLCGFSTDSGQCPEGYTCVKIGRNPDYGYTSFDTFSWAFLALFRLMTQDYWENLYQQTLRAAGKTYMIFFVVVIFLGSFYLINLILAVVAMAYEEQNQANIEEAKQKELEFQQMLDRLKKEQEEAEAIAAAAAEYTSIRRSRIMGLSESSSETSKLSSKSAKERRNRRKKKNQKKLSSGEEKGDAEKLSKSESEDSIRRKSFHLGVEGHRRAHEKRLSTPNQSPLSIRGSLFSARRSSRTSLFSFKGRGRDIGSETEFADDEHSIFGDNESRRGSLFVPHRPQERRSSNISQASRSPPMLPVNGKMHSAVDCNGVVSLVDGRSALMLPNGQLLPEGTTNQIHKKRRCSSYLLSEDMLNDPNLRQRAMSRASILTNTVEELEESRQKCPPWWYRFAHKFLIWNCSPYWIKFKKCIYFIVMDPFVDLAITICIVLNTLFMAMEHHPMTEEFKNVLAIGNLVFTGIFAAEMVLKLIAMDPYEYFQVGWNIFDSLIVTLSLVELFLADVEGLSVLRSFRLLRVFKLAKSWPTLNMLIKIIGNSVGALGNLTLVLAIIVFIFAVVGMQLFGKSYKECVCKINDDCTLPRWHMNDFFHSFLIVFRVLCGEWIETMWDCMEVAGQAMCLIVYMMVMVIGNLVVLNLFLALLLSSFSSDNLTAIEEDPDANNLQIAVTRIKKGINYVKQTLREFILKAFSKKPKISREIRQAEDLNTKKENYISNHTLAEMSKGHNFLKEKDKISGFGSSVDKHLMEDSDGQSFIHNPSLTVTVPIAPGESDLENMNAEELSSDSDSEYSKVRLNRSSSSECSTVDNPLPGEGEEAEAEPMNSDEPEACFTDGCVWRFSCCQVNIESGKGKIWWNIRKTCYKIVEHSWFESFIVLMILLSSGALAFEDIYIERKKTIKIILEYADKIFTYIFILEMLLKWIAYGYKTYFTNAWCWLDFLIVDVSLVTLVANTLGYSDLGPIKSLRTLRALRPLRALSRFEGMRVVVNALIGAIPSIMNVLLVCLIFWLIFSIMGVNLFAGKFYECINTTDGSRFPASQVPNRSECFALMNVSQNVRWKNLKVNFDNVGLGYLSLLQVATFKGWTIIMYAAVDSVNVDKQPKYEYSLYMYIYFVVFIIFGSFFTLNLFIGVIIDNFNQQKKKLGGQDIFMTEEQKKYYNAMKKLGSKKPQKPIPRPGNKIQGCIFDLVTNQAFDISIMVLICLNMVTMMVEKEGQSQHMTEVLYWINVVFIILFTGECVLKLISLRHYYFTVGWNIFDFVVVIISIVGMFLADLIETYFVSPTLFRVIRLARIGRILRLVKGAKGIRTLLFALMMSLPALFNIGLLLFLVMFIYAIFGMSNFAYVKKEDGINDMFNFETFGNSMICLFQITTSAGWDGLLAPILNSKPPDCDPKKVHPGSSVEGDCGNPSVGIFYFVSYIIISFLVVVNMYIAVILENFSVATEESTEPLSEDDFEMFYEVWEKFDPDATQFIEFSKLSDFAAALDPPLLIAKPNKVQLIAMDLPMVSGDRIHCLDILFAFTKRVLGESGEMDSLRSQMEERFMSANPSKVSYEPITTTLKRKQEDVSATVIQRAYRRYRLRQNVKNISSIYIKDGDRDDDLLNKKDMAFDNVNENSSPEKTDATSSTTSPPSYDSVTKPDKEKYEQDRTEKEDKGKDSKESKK
Protocol: The effect of these KnotBodies on cells expressing human Nav1.7 (huNav1.7) channel was assessed using QPatch automated patch-clamp platform (Sophion). For the testing of Nav1.7 ion channel currents, CHO cells stably expressing human Nav1.7 (GenBank accession number NM 002977; cell line catalogue number CT6003, Charles River Discovery, Cleveland, USA) were subjected to the QPatch electrophysiology assay in the presence or absence of the KnotBody fusions or the antibody isotypes (negative controls). Internal and external physiological solutions were freshly prepared prior to the assay. The extracellular solution contained 145 mM NaCl, 4 mM KCl, 2 mM CaCl2, 1 mM MgCl2, 10 mM HEPES and 10 mM glucose; the pH was adjusted to 7.4 with NaOH; the osmolarity was ˜305 mOsm/L. The intracellular solution contained: KF (120 mM), KCl (20 mM), HEPES (10 mM) EGTA (10 mM); the pH was adjusted to 7.2 with KOH; osmolarity was ˜300 mOsm/L.
A series of depolarising voltage (channel activating) pulses were used to monitor the channel currents upon adding control (extracellular solution) to define a control baseline of current activity. To these measured control channel currents KnotBody or parental antibody isotypes (control molecules) were applied to the external bathing solution. The parental KnotBody KB_A12 (with trypsin inhibitor knottin EETI-II at CDR2) were used as test molecule isotype controls for the testing. […] The elicited, maximum outward current values measured during the −10 mV activating step for each solution period (a control, baseline level of current was determined at 10 minutes after application of the control external recording solution and a test level of current was determined after 20 minutes of application of KnotBody or its isotype) and average inhibition was determined between the current from the 10 minute baseline control current and the subsequent 20 minute KnotBody application. […] The average inhibition values (with external control reduction subtracted) for KnotBodies and isotypes was calculated.

B1: KB_A07: EETI-II VL CDR2 KnotBody, D1A12 VH, VL SEQ ID NO: 136/372; parental/isotype control (antibody, V domains shown)
VH: EVQLVESGGGLVRPGGSLRLSCAASGFTFSSYAMSWVRQAPGKGLEWVSAISGSGGSTYYADSVKGRFTISRDNTKNSLYLQMTSLRADDTAFYYCVKDFGPGYGTGWFDYWGPGTLVTVSS
VL: DIQMTQSPSSLSASVGDRVTITCRASQSISSYLNWYQQKPGKAPKLLIYAAGVCPRILMRCKQDSDCLAGCVCGPNGFCGSRSGVPSRFSGSGSGTDFTLTISSLQPEDFATYYCQQGASPPYTFGQGTKVEIKR
huASIC1a
  % current remaining: 70.9%
Trypsin [1]; […], monoclonal phage, streptavidin coated plates
  % reduction in binding signal: 98%
Trypsin [1]; monoclonal phage supernatant, biotinylated trypsin on neutravidin coated plates, TRF
  Tryspin binding signal (FU): 21448 FU
LOX-1
  binding to LOX-1: no detectable binding to the LOX-1
Trypsin [2]; KnotBody Fab 0.6 ug/mL, background (no Fab) 431
  TRF signal for 0.6 ug/mL Fab: 107814
Trypsin [2]; KnotBody Fab 2.4 ug/mL, background (no Fab) 406
  TRF signal for 2.4 ug/mL Fab: 201003
Trypsin [2]; KnotBody Fab 10 ug/mL, background (no Fab) 420
  TRF signal for 10 ug/mL Fab: 226082

B2: KB_A12_ProTx-III Gly (antibody, V domains shown)
VH: EVQLVESGGGLVRPGGSLRLSCAASGFTFSSYAMSWVRQAPGKGLEWVSAISGSGGSTYYADSVKGRFTISRDNTKNSLYLQMTSLRADDTAFYYCVKDFGPGYGTGWFDYWGPGTLVTVSS
VL: QSVLTQPPSVSEAPRQRVTITCSGSSSNIGNNAVNWYQQLPGKAPKLLIYAAGRDCLKFGWKCNPRNDKCCSGLKCGSNHNWCKLHIGANSGVSDRFSAAKSGTSASLAINGLRSEDEADYYCAAWDDSLNGYVFGTGTKLTVLG
Human Nav1.7; concentration tested 22.3 μM
  Mean % inhibition of Nav1.7 currents: 26.6%

B3: KB_A12_ProTx-III 2M Gly: ProTx-III 2M Gly in VL CDR2 of KB_A12, IgG; Nav1.7 KnotBody (antibody, V domains shown)
VH: EVQLVESGGGLVRPGGSLRLSCAASGFTFSSYAMSWVRQAPGKGLEWVSAISGSGGSTYYADSVKGRFTISRDNTKNSLYLQMTSLRADDTAFYYCVKDFGPGYGTGWFDYWGPGTLVTVSS
VL: QSVLTQPPSVSEAPRQRVTITCSGSSSNIGNNAVNWYQQLPGKAPKLLIYAAGRGCLKFGWKCNPRNDKCCSGLKCGSNHNWCKWHIGANSGVSDRFSAAKSGTSASLAINGLRSEDEADYYCAAWDDSLNGYVFGTGTKLTVLG
Human Nav1.7; concentration tested 15.4 μM
  Mean % inhibition of Nav1.7 currents: 63.5%
